Laboratory results taken from patent EP4745156A1.
Substitutions are numbered along the chain they refer to.

B1: 6465-H3K3-canIgGB (antibody, V domains shown)
VH: EVQLVESGGDLVKPGGSLRLSCVASGYSFTNYYLYWVRQAPGKGLEWVAELNPRNGGTNLNAKFKTRFTISRDNAKNMAYLQMNSLRAEDTAVYYCTRGGTTVVVRDVMDFWGQGTLVTVSS
VL: DIVMTQTPLSLSVSPGEPASISCRASESVDSYGNSFMHWYRQKPGQSPQLLIYRASNLESGVPDRFSGSGSGTDFTLRISRVEADDAGVYYCQQSNEDPYTFGQGTKLEIKR
B2: 6465-H3K1-canIgGB (antibody, V domains shown)
VH: B1 VH
VL: EIVLTQTPLSLAVTPGELATISCRASESVDSYGNSFMHWYLQKPGQTPRLLIYRASNLESGVSDRFSGSGSRTDFTLKISRVEAEDVGVYYCQQSNEDPYTFGQGTKLEIKR
B3: 6465-H2K1-canIgGB (antibody, V domains shown)
VH: B1 VH with E46Q, V48L, A49G, R72V, N74K, M78T
VL: B2 VL
B4: 6465-H1K1-canIgGB (antibody, V domains shown)
VH: B1 VH with A49G, R72V, N74K
VL: B2 VL
B5: B2-mHvKv-canIgGB (antibody, V domains shown)
VH: EVKLVESGGGLVQPGGSMKLSCAASGFTFSDAWMDWVRQSPERGLEWVAEIRSRAESHATYYAESVKGRFTISRDDSKGSVYLQMNSLGTEDTGIYYCTPASTMITTGWFAYWGQGTMVTVSS
VL: NIVMTQSPAILSVTPGDRVSLSCRASQNISVYLHWYQQKSHDSPRVLIKYVSQSISGIPSRFSGSGSGSDFTLRINSVEPEDVGVYYCQNGHSFPYTFGGGTKLEIKR
B6: 7475-mHvKv-canIgGB (antibody, V domains shown)
VH: EVKLVESGEGLVKPGGSLKLSCAASGFTFSSYAMSWVRQTPEKRLEWVAYISNGGDYIFYADTVKGRFTISRDNARNTLYLQMSSLKSEDTAMYYCTRRGHYNTSSYWYFDVWGTGTTVTVSS
VL: DIVMTQSPKSMSMSVGERVTLSCKASENVGTYVSWYQQKPEQSPKLLIYGASNRYTGVPDRFTGSGSATDFTLTISSVQAEDLADYHCGQSYSYPPTFGAGTKLELKR
B7: 6465-mHvKv-canIgGB (antibody, V domains shown)
VH: EVQLQQSGAELVRPGASVRLSCKASGYSFTNYYLYWVKQRPGQGLEWIGELNPRNGGTNLNAKFKTKATLTVDKSSNTAYMRLSSLTSEDSAVYYCTRGGTTVVVRDVMDFWGQGTSVTVSS
VL: DIELTQSPASLAVSLGQRATISCRASESVDSYGNSFMHWYQQKPGQPPKLLIYRASNLESGIPARFSGSGSRTDFTLTINPVEADDVATYYCQQSNEDPYTFGGGTKLEIKR
B8: B2-H1K1-canIgGB (antibody, V domains shown)
VH: EVQLVESGGDLVKPGGSLRLSCVASGFTFSDAWMDWVRQAPGKGLQWLAEIRSRAESHATYYAESVKGRFTISRDDAKNTVYLQMNSLRAEDTAVYYCTPASTMITTGWFAYWGQGTLVTVSS
VL: EIVMTQTPLSLAVTPGELATISCRASQNISVYLHWYLQKPGQTPRVLIKYVSQSISGVSDRFSGSGSGSDFTLKISRVEAEDVGVYYCQNGHSFPYTFGQGTKLEIKR
B9: B2-H2K2-canIgGB (antibody, V domains shown)
VH: B8 VH with Q46E, L48V, T80M
VL: DIVMTQTPLSLSVSPGETASISCRASQNISVYLHWYRQKPGQSPQVLIKYVSQSISGVPDRFSGSGSGSDFTLRISRVEADDTGVYYCQNGHSFPYTFGQGTKLEIKR
B10: B2-H3K3-canIgGB (antibody, V domains shown)
VH: B8 VH with L48V
VL: B8 VL with A12S, T14S, L37Q, T43A, R45K, S59P, D60S, K74T, R77S
B11: B2-H3K1-canIgGB (antibody, V domains shown)
VH: B8 VH with L48V
VL: B8 VL
B12: B2-H2K1-canIgGB (antibody, V domains shown)
VH: B8 VH with Q46E, L48V, T80M
VL: B8 VL
B13: B2-H1K2-canIgGB (antibody, V domains shown)
VH: B8 VH
VL: B9 VL
B14: B2-H3K2-canIgGB (antibody, V domains shown)
VH: B8 VH with L48V
VL: B9 VL
B15: B2-H1K3-canIgGB (antibody, V domains shown)
VH: B8 VH
VL: B8 VL with A12S, T14S, L37Q, T43A, R45K, S59P, D60S, K74T, R77S
B16: B2-H2K3-canIgGB (antibody, V domains shown)
VH: B8 VH with Q46E, L48V, T80M
VL: B8 VL with A12S, T14S, L37Q, T43A, R45K, S59P, D60S, K74T, R77S
B17: 7475-H1K1-canIgGB (antibody, V domains shown)
VH: EVQLVESGGDLVKPGGSLRLSCVASGFTFSSYAMSWVRQAPGKGLQWVAYISNGGDYIFYADTVKGRFTISRDNARNTLYLQMNSLRSEDTAVYYCTRRGHYNTSSYWYFDVWGQGTLVTVSS
VL: EIVMTQSPASLSLSQEEKVTITCKASENVGTYVSWYQQKPGQAPKLLIYGASNRYTGVPSRFSGSGSGTDFTFTISSLEPEDVAVYYCGQSYSYPPTFGAGTKVELKR
B18: 7475-H2K3-canIgGB (antibody, V domains shown)
VH: B17 VH with V37I, R76K, S88A
VL: B17 VL with T72S
B19: 7475-H1K2-canIgGB (antibody, V domains shown)
VH: B17 VH
VL: B17 VL with G68A, F73L, L78V
B20: 7475-H3K1-canIgGB (antibody, V domains shown)
VH: B17 VH with Y50R, R76K, S88A, V93M
VL: B17 VL
B21: 7475-H3K3-canIgGB (antibody, V domains shown)
VH: B17 VH with Y50R, R76K, S88A, V93M
VL: B17 VL with T72S
B22: 7475-H3K2-canIgGB (antibody, V domains shown)
VH: B17 VH with Y50R, R76K, S88A, V93M
VL: B17 VL with G68A, F73L, L78V
B23: 7475-H2K1-canIgGB (antibody, V domains shown)
VH: B17 VH with V37I, R76K, S88A
VL: B17 VL
B24: 7475-H1K3-canIgGB (antibody, V domains shown)
VH: B17 VH
VL: B17 VL with T72S
B25: 7475-H2K2-canIgGB (antibody, V domains shown)
VH: B17 VH with V37I, R76K, S88A
VL: B17 VL with G68A, F73L, L78V

These binders were tested against His-tagged canine IL-31 (interleukin 31) recombinant protein (canine) (assay: cell-based or functional assay).

pSTAT IC50 (µg/mL)	Binder
7.2	B1
7.8	B2
7.3	B3
7.5	B4
6.8	B5
6.7	B6
7.1	B7
9.4	B8
7.8	B9
7.4	B10
8.5	B11
8.3	B12
9.2	B13
7.2	B14
9.3	B15
7.1	B16
8.4	B17
7.2	B18
8.1	B19
7.5	B20
6.9	B21
7.8	B22
7.9	B23
8.2	B24
7.1	B25

Each binder was assayed against His-tagged canine IL-31 (interleukin 31) recombinant protein (canine) (assay: BLI (Gator), biotinylated antibody on streptavidin probe, canine IL-31 as analyte).

Kd [nM]	koff [s⁻¹]	kon [M⁻¹ s⁻¹]	Binder
2.02	0.00164	812000	B1
5.75	0.00121	211000	B2
3.37	0.00171	508000	B3
3.21	0.000979	305000	B4
3.04	0.000243	79900	B5
1.01	0.000251	250000	B6
2.09	0.00106	507000	B7
17.2	0.0013	75600	B8
9.17	0.000882	96200	B9
3.16	0.000381	121000	B10
10.2	0.00114	112000	B11
10	0.000942	93800	B12
13.8	0.00115	82800	B13
1.76	0.000188	107000	B14
16.7	0.0015	89800	B15
1.53	0.000143	93500	B16
6.73	0.00156	231000	B17
4.67	0.000759	162000	B18
6.37	0.000614	96500	B19
4.84	0.000542	112000	B20
3.34	0.00204	611000	B21
5.4	0.000539	100000	B22
5.43	0.00055	101000	B23
6.51	0.00192	295000	B24
3.61	0.000481	133000	B25
